These results are taken from article PMC5682392, “Site-Directed Mutagenesis Study Revealed Three Important Residues in Hc-DAF-22, a Key Enzyme Regulating Diapause of Haemonchus contortus” (Frontiers in Microbiology, 2017).

Data set [1] has as its system CC(=O)CC(=O)SCCNC(=O)CCNC(=O)[C@H](O)C(C)(C)COP(=O)(O)OP(=O)(O)OC[C@H]1O[C@@H](n2cnc3c(N)ncnc32)[C@H](O)[C@@H]1OP(=O)(O)O. Kind of data set: purified protein. As to conditions: 60 μM CoA co-substrate, 20 mM MgCl2, 50 mM Tris-Cl pH 8.1 (pH 8.0 also stated), 37°C, varied substrate not given, taken as AcAc-CoA. In kind it is biochemical, Haemonchus contortus.
Substrate in the data set “purified protein”: CC(=O)CC(=O)SCCNC(=O)CCNC(=O)[C@H](O)C(C)(C)COP(=O)(O)OP(=O)(O)OC[C@H]1O[C@@H](n2cnc3c(N)ncnc32)[C@H](O)[C@@H]1OP(=O)(O)O
The data set can be described thus: purified protein. The note with it: 60 μM CoA co-substrate, 20 mM MgCl2, 50 mM Tris-Cl pH 8.1 (pH 8.0 also stated), 37°C, varied substrate not given, taken as AcAc-CoA, text prints 33.765. It is filed as biochemical, Haemonchus contortus.

For Hc-DAF-22 (Haemonchus contortus; C84S), in data set [1], the Km came to 51.25 µM and the Vmax worked out at 0.693 µM/min.

For Hc-DAF-22 (Haemonchus contortus; H299A), in data set [1], the Km came to 79.85 µM and the Vmax was 1.39 µM/min.

As for Hc-DAF-22 (Haemonchus contortus; H349A), in data set [1], the Michaelis constant (Km) amounted to 78.50 µM and the Vmax stood at 0.765 µM/min.

B1: Hc-DAF-22 (Haemonchus contortus) (protein)
chain: MGKSKVYVIGVGMTKFCKPGSRDWDYPDMVKEAVNMALDDCSLKYTDIQQATVGYLFGGTCCGQRALYELGFTGIPIFNVNNACASGSSGLYLCKQIIESGNSDVVLACGFEKMATGSLDTQAGNSDGRALSVDNHIQVMSDTYGLFPAPITAQMFANAGKEHMEKYGTKREHFAKIAWKNHLHSVHNPNSQFTKEFSLDQVMNARKIYDFMGLLECSPTSDGSAAAVLCSERFLEQNPRLKPQAVEIVGLELGTDQPSVFKENSNIKMIGFDMIKKISSDLYRNTGLCPNDVQVIELHDCFAPNELITYEALGLCDVGKGGTIVDRGDNTYGGKWVINPSGGSISKGHPIGATGVAQVVELSNQLRGKCGKRQVPNCKIAMQHNIGIGGAGVVGLYRLAYPSSTCPPTTKSSPTMSAFKSDVIFEEIKQRINEEKELVKKIATSFRIIITGEDGTVKKWTIDAKSDTPYVGDDDRKVEVEITIKDSDFMNIAAGKLKADQAFMQGKMKLKGNIAKSMKLKTLLDPKMLKAKI
On to B1, for which, in the data set “purified protein”, the Km came out at 33.76 µM and the Vmax came to 1.78 µM/min.
